The target in assay [1] is GFP::CDK5RAP2 isoform B, full length, wild type (assembled into micron-scale scaffolds with anti-CM2 IgM) (human) (UniProt Q96SN8). The assay can be described thus: partitioning into in vitro scaffolds (confocal fluorescence microscopy); 4-component asters: 167 nM GFP::CDK5RAP2, 33 nM mBFP::γ-TuRCs, 33 nM mCherry::HSET, 13 µM HiLyte-647-labeled α/β-tubulin; 50 mM KCl, 25 mM HEPES pH 7.4, IgM+; compared with 3-component reactions without HSET.

The target in assay [2] is T1, GFP::CDK5RAP2 isoform B, full length, wild type (assembled into micron-scale scaffolds with anti-CM2 IgM) (human, UniProt Q96SN8-4 1-1814).
T1 construct: CDK5RAP2 (CEP215) isoform B, human, Protein ID Q96SN8-4, lacking a.a; 1576-1654 of the longest isoform; full length; In the assays the protein stood as micron-scale assemblies nucleated by an anti-CM2 IgM; also called CEP215; GFP::CDK5RAP2(WT); source: SF9 insect cells (baculovirus), purified (MBP selector beads, PreScission cleavage, Ni-NTA to remove the protease)
The assay can be described thus: partitioning into in vitro scaffolds (confocal fluorescence microscopy); 120 nM GFP::CDK5RAP2 assembled with anti-CM2 IgM, 50 nM mCherry, mCherry::HSET or mCherry::HSET(ΔIDR); 50 mM KCl, 25 mM HEPES; partition coefficient of mCherry signal. To be noted: both partners purified.

Sequence of GFP::CDK5RAP2 isoform B, full length, wild type (assembled into micron-scale scaffolds with anti-CM2 IgM) (human) (Q96SN8 other isoform, or with tags, fused parts or gaps): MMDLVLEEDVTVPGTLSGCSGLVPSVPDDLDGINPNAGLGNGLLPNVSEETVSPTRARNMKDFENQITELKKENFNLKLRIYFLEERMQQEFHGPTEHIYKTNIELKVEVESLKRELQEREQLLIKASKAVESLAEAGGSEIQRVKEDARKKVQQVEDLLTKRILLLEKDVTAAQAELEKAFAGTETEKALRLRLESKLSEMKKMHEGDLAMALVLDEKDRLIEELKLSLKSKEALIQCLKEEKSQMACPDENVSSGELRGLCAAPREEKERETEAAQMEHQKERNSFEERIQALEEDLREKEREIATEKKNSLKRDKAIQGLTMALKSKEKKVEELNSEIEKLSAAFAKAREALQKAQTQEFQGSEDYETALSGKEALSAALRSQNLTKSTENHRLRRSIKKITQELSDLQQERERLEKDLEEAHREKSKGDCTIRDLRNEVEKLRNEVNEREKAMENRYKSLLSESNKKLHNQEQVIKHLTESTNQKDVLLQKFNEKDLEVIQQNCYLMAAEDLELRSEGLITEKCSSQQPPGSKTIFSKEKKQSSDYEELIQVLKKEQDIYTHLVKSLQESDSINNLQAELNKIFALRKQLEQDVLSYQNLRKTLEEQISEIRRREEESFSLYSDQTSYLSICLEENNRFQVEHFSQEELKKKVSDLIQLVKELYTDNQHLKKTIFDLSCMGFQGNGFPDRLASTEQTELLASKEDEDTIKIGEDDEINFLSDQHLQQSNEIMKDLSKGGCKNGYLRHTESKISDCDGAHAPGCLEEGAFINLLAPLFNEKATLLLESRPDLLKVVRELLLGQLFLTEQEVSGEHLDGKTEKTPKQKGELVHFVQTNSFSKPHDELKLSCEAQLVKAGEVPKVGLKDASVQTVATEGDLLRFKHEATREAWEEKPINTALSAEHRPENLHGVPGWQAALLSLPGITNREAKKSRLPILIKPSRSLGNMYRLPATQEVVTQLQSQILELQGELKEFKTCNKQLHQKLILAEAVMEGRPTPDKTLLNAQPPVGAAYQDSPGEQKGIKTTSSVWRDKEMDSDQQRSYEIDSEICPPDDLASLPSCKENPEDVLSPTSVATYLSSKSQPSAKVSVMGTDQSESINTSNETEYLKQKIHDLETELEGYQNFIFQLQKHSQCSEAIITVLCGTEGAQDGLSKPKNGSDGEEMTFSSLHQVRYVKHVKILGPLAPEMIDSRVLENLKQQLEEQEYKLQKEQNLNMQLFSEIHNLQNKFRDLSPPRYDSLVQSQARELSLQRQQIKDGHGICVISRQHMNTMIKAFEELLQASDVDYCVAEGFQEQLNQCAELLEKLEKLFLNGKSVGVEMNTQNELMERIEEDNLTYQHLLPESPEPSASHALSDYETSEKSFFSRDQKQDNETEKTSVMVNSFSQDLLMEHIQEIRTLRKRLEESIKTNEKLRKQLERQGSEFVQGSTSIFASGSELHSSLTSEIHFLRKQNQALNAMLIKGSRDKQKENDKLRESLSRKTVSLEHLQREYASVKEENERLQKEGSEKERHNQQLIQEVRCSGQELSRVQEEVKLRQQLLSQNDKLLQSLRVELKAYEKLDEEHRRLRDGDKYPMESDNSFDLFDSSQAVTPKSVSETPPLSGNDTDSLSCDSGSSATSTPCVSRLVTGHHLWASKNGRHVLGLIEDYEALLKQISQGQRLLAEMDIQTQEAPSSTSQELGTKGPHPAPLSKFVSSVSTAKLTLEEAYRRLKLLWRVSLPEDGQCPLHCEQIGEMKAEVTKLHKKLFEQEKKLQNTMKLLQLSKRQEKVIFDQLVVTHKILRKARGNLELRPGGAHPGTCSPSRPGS
T1 sequence (Q96SN8 other isoform, or with tags, fused parts or gaps): as above

For the molecule “human γ-tubulin ring complex tagged with blue fluorescent protein (mBFP::γ-TuRC) (from UniProt P23258 1-451)”, in assay [1], the fold more γ-TuRC recruited with mCherry::HSET than without amounted to 1.4 fold.

B1: mCherry::HSET, full length, wild type (natural protein, human, UniProt Q9BW19 1-673, looked up)
chain: MDPQRSPLLEVKGNIELKRPLIKAPSQLPLSGSRLKRRPDQMEDGLEPEKKRTRGLGATTKITTSHPRVPSLTTVPQTQGQTTAQKVSKKTGPRCSTAIATGLKNQKPVPAVPVQKSGTSGVPPMAGGKKPSKRPAWDLKGQLCDLNAELKRCRERTQTLDQENQQLQDQLRDAQQQVKALGTERTTLEGHLAKVQAQAEQGQQELKNLRACVLELEERLSTQEGLVQELQKKQVELQEERRGLMSQLEEKERRLQTSEAALSSSQAEVASLRQETVAQAALLTEREERLHGLEMERRRLHNQLQELKGNIRVFCRVRPVLPGEPTPPPGLLLFPSGPGGPSDPPTRLSLSRSDERRGTLSGAPAPPTRHDFSFDRVFPPGSGQDEVFEEIAMLVQSALDGYPVCIFAYGQTGSGKTFTMEGGPGGDPQLEGLIPRALRHLFSVAQELSGQGWTYSFVASYVEIYNETVRDLLATGTRKGQGGECEIRRAGPGSEELTVTNARYVPVSCEKEVDALLHLARQNRAVARTAQNERSSRSHSVFQLQISGEHSSRGLQCGAPLSLVDLAGSERLDPGLALGPGERERLRETQAINSSLSTLGLVIMALSNKESHVPYRNSKLTYLLQNSLGGSAKMLMFVNISPLEENVSESLNSLRFASKVNQCVIGTAQANRK
notes: HSET (KifC1), kinesin-14 family motor, human, full length; also called KifC1; mCherry::HSET(WT); source: SF9 insect cells (baculovirus), purified (Ni-NTA)
As for B1, the binding result in assay [2] is recorded as “binds”.

For the origin of these results see paper PMC12273628, “In vitro reconstitution of a minimal human centrosome scaffold capable of forming and clustering microtubule asters” (Journal of Cell Science, 2025).
